Where a chain is given by its changes, count along the chain named.

B1: 75 (VHH)
VHH: QVQLVESGGGSVQAGGSLRLSCAASGYINQIYYLGWFRQAPGKEREGVAALNTYQGQTYYADSVKGRFTVSLDNAKNTVYLQMNSLKPEDTALYYCAAARWGRDEPLYHYYYSYWGQGTQVTVS
B2: 94 (VHH)
VHH: B1 VHH with N29T, Q30M, Y32E, Y54H, Q55T, Q57G, D104Y, Y108H, H109Y, Y110A
B3: 90 (VHH)
VHH: B1 VHH with Y27A, N52S, Y54K, Q55Y, Q57E, D104Q, E105Y, Y108T, H109F, Y110V
B4: 79 (VHH)
VHH: B1 VHH with N29H, Q30T, Y32E, N52Y, Y54L, Q55K, E105T, Y108H, H109Y, Y110Q
B5: 69 (VHH)
VHH: QVQLVESGGGSVQAGGSLRLSCAASGYISEISYLGWFRQAPGKEREGVAALITGWGHTYYADSVKGRFTVSLDNAKNTVYLQMNSLKPEDTALYYCAAAQTGAWYPLETYIYHYWGQGTQVTVS
B6: 84 (VHH)
VHH: QVQLVESGGGSVQAGGSLRLSCAASGYIKHIEYLGWFRQAPGKEREGVAALKTSSGSTYYADSVKGRFTVSLDNAKNTVYLQMNSLKPEDTALYYCAAARYGRSDPLHYHEYSYWGQGTQVTVS
B7: 85 (VHH)
VHH: QVQLVESGGGSVQAGGSLRLSCAASGSISSITYLGWFRQAPGKEREGVAALVTSRGKTYYADSVKGRFTVSLDNAKNTVYLQMNSLKPEDTALYYCAAASWGYTWPLYTYDYWYWGQGTQVTVS
B8: 93 (VHH)
VHH: QVQLVESGGGSVQAGGSLRLSCAASGHIAQIEYLGWFRQAPGKEREGVAALSTNQGYTYYADSVKGRFTVSLDNAKNTVYLQMNSLKPEDTALYYCAAARWGRTYPLSYMAYTYWGQGTQVTVS
B9: 78 (VHH)
VHH: QVQLVESGGGSVQAGGSLRLSCAASGYIKSIKYLGWFRQAPGKEREGVAALMTRYGETYYADSVKGRFTVSLDNAKNTVYLQMNSLKPEDTALYYCAAANYGNNWPLTGVNYWYWGQGTQVTVS
B10: 71 (VHH)
VHH: QVQLVESGGGSVQAGGSLRLSCAASGNIQHIKYLGWFRQAPGREREGVAALMTRYGQTYYADSVKGRFTVSLDNAKNTVYLQMNSLKPEDTALYYCAAAHYGDNFPLAYQAYLYWGQGTQVTVS
B11: 73 (VHH)
VHH: QVQLVESGGGSVQAGGSLRLSCAASGKIYQIGYLGWFRQAPGKEREGVAALMTTDGYTYYADSVKGRFTVSLDNAKNTVYLQMNSLKPEDTALYYCAAARHGRERPLHYWYYSYWGQGTQVTVS
B12: 88 (VHH)
VHH: QVQLVESGGGLVQAGGSLRLSCAASGFPVWAHHMLWYRQAPGKEREWVAAIASWGANTAYADSVKGRFTISRDNAKNTVYLQMNSLKPEDTAVYYCNVKDSGQYRENYDYWGQGTQVTVS
B13: 82 (VHH)
VHH: QVQLVESGGGSVQAGGSLRLSCAASGTINSIHYLGWFRQAPGKEREGVAALDTYIGYTYYADSVKGRFTVSLDNAKNTVYLQMNSLKPEDTALYYCAAARWGRTSPLHWYYYTYWGQGTQVTVS
B14: 86 (VHH)
VHH: QVQLVESGGGSVQAGGSLRLSCAASGTIASIIYLGWFRQAPGKEREGVAALNTWNGKTYYADSVKGRFTVSLDNAKNTVYLQMNSLKPEDTALYYCAAAYSGMWYPLSNEHYGYWGQGTQVTVS
B15: 83 (VHH)
VHH: QVQLVESGGGSVQAGGSLRLSCAASGGITHIVYLGWFRQAPGKEREGVAALMTRWGTTYYADSVKGRFTVSLDNAKNTVYLQMNSLKPEDTALYYCAAAKYGQNFPLSYHAYRYWGQGTQVTVS
B16: 77 (VHH)
VHH: QVQLVESGGGSVQAGGSLRLSCAASGSISSITYLGWFRQAPAKSVRAVAALDTEQGETYYADSVKGRFTVSLDNAKNTVYLQMNSLKPEDTALYYCAAANQHGGYYPLDSAWYTYWGQGTQVTVS
B17: 81 (VHH)
VHH: QVQLVESGGGSVQAGGSLRLSCAASGYIHRIEYLGWFRQAPGKEREGVAALSTISGNTYYADSVKGRFTVSLDNAKNTVYLQMNSLKPEDTALYYCAAARFGRAYPLHYYQYTYWGQGTQVTVS
B18: 97 (VHH)
VHH: QVQLVESGGGSVQAGGSLRLSCAASGAISTIEYLGWFRQAPGREREGVAALYTERGYTYYADSVKGRFTVSLDNAKNTVYLQMNSLKPEDTALYYCAAARYGHAQAPLHYFWYGYWGQGTQVTVS
B19: sybody 100 (Sb100) (VHH)
VHH: B7 VHH with R55D, K57R, S100N, T104S, T109Q, Y110T, D111E
notes: source: E. coli MC1061 F-, periplasmic extract, purified (Ni-NTA, desalted in PBS)
B20: sybody 42 (Sb42) (VHH)
VHH: QVQLVESGGGLVQAGGSLRLSCAASGFPVYNTWMEWYRQAPGKEREWVAAITSWGFKTYYADSVKGRFTISRDNAKNTVYLQMNSLKPEDTAVYYCNVKDEGYTGYYYDYWGQGTQVTVS
notes: as for B19
B21: sybody 95 (Sb95) (VHH)
VHH: B9 VHH with Y27N, K29Y, S30N, N100S, N103A, T108V, G109S, V110A, N111A, W113T
notes: as for B19
B22: sybody 76 (Sb76) (VHH)
VHH: QVQLVESGGGLVQAGGSLRLSCAASSFPVDTYHMAWYRQAPGKEREWVAAIVSWGWRTYYADSVKGRFTISRDNAKNTVYLQMNSLKPEDTAVYYCNVKDIGAQEVHYDYWGQGTQVTVS
notes: as for B19
B23: sybody 23 (Sb23) (VHH)
VHH: QVQLVESGGGLVQAGGSLRLSCAASGFPVESENMHWYRQAPGKEREWVAAIYSTGGWTLYADSVKGRFTISRDNAKNTVYLQMNSLKPEDTAVYYCAVQVGYWYEGQGTQVTVS
notes: as for B19
B24: sybody 12 (Sb12) (VHH)
VHH: QVQLVESGGGLVQAGGSLRLSCAASGFPVQLYWMEWYRQAPGKEREWVAAITSDGDYTEYADSVKGRFTISRDNAKNTVYLQMNSLKPEDTAVYYCYVKVGEWYYGQGTQVTVS
notes: as for B19

The target of the first data set is T1, SARS-CoV-2 spike receptor-binding domain (2019-nCoV RBD-SD1, residues 319–566) (SARS-CoV-2, UniProt P0DTC2).
Experiment: not given
Conditions: not given
Consider B1, for which the binding result is “binds”.

Turning to B2, the binding result was “binds”.

For the molecule B3, the binding result was “binds”.

On to B4, for which the binding result is “binds”.

As for B5, the binding result is reported as “binds”.

As to B6, the binding result is “binds”.

As to B7, the binding result is reported as “binds”.

B8: the binding result was “binds”.

For the molecule B9, the binding result is “binds”.

Take B10: the binding result was “binds”.

Turning to B11, the binding result was “binds”.

Consider B12, for which the binding result is reported as “binds”.

Consider B13, for which the binding result is reported as “binds”.

Take B14: the binding result was “binds”.

On to B15, for which the binding result is reported as “binds”.

On to B16, for which the binding result is on record as “binds”.

As to B17, the binding result was “binds”.

With B18, the binding result was “binds”.

In the next data set the target is T1, SARS-CoV-2 spike receptor-binding …. As to the kind of experiment: BLI. The note with it: both partners purified.
In turn, B19 returned a dissociation constant Kd of 38.7 nM.

B20 yielded a dissociation constant Kd of 5 nM.

B21 yielded a Kd of 43.9 nM.

In turn, B22 had a Kd of 58.1 nM.

As for B23, the Kd came out at 10.6 nM.

With B24, the Kd worked out at 24.2 nM.

A further data set has the same target. The experiment in a line: thermal shift (nanoDSF). The note with it: both partners purified. In general terms: In DSF a fluorescence change marks the thermal transition of the protein.
On to B23, for which the “increase of the melting temperature of RBD” value was roughly 10 degrees.

In general, Kd refers to a measure of binding affinity in units of concentration. The low end stands for higher affinity, the high end for lower affinity.

For the origin of these results see PMC7642358 (Nature Communications, 2020).
